From patent US20250108100A1, “C-TERMINAL FRAGMENT OF APOLIPOPROTEIN E AND APPLICATION THEREOF IN INHIBITING y-SECRETASE ACTIVITY” (SYNPHATEC (SHANGHAI) BIOPHARMACEUTICAL TECHNOLOGY CO., LTD., priority 2022, published 2025)

Legend:
[1] = test system: human APP and β-secretase co-expressed in HEK 293T cells; assay: HEK 293T cells co-expressing APP and β-secretase (BACE1): Aβ ELISA and β-CTF Western blot; assay type: cell-based
Method: The experiment was performed according to the standard procedure in the ELISA analysis kit of Invitrogen Company. • a) The target protein was expressed in HEK 293T cell line. Cells were subcultured one day before transfection, and transfection was performed when the degree of cell adhesion reached 70%-80%. The transfection reagent was lipofectamine2000 (ThermoFisher). • b) 4-6 hours post transfection, medium were replaced with fresh cell culture medium. • c) 36-48 hours post transfection, the cell culture medium was collected, and then the ELISA process was performed or the cell culture medium was frozen in a −80° C. refrigerator. • d) 50 μl of standard samples and experimental samples were added to each well of the 96-well plate. • e) 50 μl of human-derived Aβ40 or Aβ42 or mouse-derived Aβ40 detection antibody was added to each well of the 96-well plate. • f) The above samples were shaken gently and placed at room temperature for 3 hours. • g) The liquid in the well were removed, and the plate was washed 4 times with 1× wash buffer. • h) 100 μl of the buffer containing 1× anti-Rabbit IgG HRP was added. • i) The plate was shaken gently and placed at room temperature for […]. • j) The liquid in the well were removed, and the well was washed 4 times with 1× wash buffer. • k) 100 μl of Stabilized Chromogen was added to each well, and the plate was placed in the dark for 30 minutes at room temperature. • l) 100 μl of Stop Solution was added to each well. • m) The absorbance at 450 nm was measured with a microplate reader. 2.4 qRT-PCR
48 hours after transfection of HEK 293T cells and N2A cells, or 4.5 days after lentivirus infection of neurons, media and lysates were collected. Aβ40 and Aβ42 in the culture medium and cell lysates were detected by an Aβ ELISA kit as indicated in the protocol. (Invitrogen Technology; KHB3481 for human Aβ40, KHB3441 for human Aβ42 and KMB3481 for mouse Aβ40).
Data were analyzed by GraphPad Prism software (v6) using unpaired, paired, or one-sample t-tests. Aβ40 and Aβ42 levels were normalized to the corresponding GFP controls. α-CTF levels were normalized to FL-APP and corresponding GFP controls. All data are represented as mean±SEM. Statistical significance was defined as p<0.05. One, two, three and four stars (*) in the graph indicate p-values <0.05, <0.01, <0.001 and <0.0001, respectively.

[2] = test system: APP; assay: Cell surface expression of APP in HEK 293T cells (surface biotinylation, Western blot); assay type: cell-based
Method: FIGS. 29A-29K show ApoE CT is still able to regulate APP metabolism when α- or β-secretase is inhibited. […] N=9. FIGS. 29C-29D show ELISA assay and statistical analysis of Western blot assay for the effects of ApoE CT on Aβ production from co-expressed APP and BACE1 in HEK 293T cells treated with 1 μM ADAM10 inhibitor GI254023X; control group received no inhibitor treatment. FIG. 29C: Aβ40 in cell culture medium; FIG. 29D: Aβ40 in cell lysates. N=6. FIGS. 29E-29F show Western blot detection and statistical analysis of the effects of ApoE CT on the production of α-CTF from co-expressed APP in HEK 293T cells treated with 5 μM BACE1 inhibitor AZD3839; the control group received no inhibitor treatment. N=10. FIGS. 29G-29H show Western blot detection and statistical analysis of α-CTF produced by co-expressing APPM596V and GFP or ApoE CT in HEK 293T cells, respectively. N=7. […] Cell surface proteins of HEK 293T cells expressing GFP(−) and ApoE CT(+) were labeled with sulfo-N-hydroxysuccinimide-biotin and isolated with streptavidin-coupled agarose beads.

B1: ApoE CT: C-terminal fragment of ApoE, positions 216-299 of SEQ ID NO: 12; SEQ ID NO: 33 (protein)
chain: ARMEEMGSRTRDRLDEVKEQVAEVRAKLEEQAQQIRLQAEAFQARLKSWFEPLVEDMQRQWAGLVEKVQAAVGTSAAPVPSDNH
Aβ40 in the presence of GI254023X ([1]; APP and BACE1, 1 μM GI254023X): decrease Aβ40 | β-CTF levels ([1]; APP and BACE1, Western blot): did not alter β-CTF levels | production of Aβ40 ([1]; APP and β-secretase co-expressed, ELISA, vs GFP control): decreased Aβ40 | Aβ40 in cell lysates, decreased by ([1]; APP, BACE1): about 42% | Aβ40 secreted into the cell culture medium, reduced by ([1]; APP, BACE1): about 75% | Aβ42, reduced by ([1]; APP, BACE1): about 74% | ratio of Aβ42/Aβ40 ([1]; APP, BACE1): remains unchanged | Aβ40 ([1]; ELISA): 25 % of GFP control | Aβ42 ([1]; ELISA): about 26 % of GFP control | APP expression on the cell surface [2]: did not alter APP expression on the cell surface
